In data set [1] the target is HERV-K Env-green fluorescent protein (GFP) fusion protein in transfected HEK293T cells (human endogenous retrovirus-K (HERV-K)). Put plainly: flow cytometry on fixed HEK293T cells transfected with Env-GFP; G10, anti-Myc antibody, Alexa Fluor 647 secondary antibody. For orientation: In flow cytometry, cells or beads pass a laser one at a time.
The target of data set [2] is T1, purified recombinant HERV-K Env protein (human endogenous retrovirus-K (HERV-K)).
T1 chain: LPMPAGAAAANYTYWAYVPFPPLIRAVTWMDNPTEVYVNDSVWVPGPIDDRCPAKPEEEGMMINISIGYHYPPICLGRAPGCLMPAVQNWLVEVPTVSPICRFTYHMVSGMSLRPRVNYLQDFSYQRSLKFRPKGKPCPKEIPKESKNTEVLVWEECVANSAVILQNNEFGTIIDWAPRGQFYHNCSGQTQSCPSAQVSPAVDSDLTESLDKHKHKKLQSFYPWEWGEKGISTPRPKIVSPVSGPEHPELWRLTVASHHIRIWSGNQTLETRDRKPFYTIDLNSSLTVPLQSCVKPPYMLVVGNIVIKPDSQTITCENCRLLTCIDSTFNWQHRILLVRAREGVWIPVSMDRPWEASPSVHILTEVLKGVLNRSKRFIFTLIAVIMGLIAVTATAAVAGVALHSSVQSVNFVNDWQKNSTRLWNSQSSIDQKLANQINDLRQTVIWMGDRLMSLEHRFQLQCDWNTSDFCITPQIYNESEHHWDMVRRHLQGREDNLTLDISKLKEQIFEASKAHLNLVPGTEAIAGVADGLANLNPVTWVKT
Put plainly: protein thermal shift assay (DSF); HERV-K Env with 1-3 nM G10.

B1: HERV-K Env nanobody G10 (VHH)
VHH: EVQLQASGGGFVQPGGSLRLSCAASGSTWYLDAMGWFRQAPGKEREFVSAISDLDDTARYYADSVKGRFTISRDNSKNTVYLQMNSLRAEDTATYYCAYLGATMAETYWGQGTQVTVSS
notes: Recombinant protein made in E. coli; From Hybrigenics antibody phage display; also called nanobody clone G10; G10 nanobody
B1 came in with a % of cells in the DP quadrant (GFP and Alexa Fluor 647) in data set [1] of 39.4%. The “shift in Tm” value in data set [2] is around 2.5 ° C.

For the origin of these results see patent publication US20250276015A1 (US Dept. of Health and Human Services, published 2025).
